B1: FlgH (natural protein, UniProt P0A1N8 22-232, looked up)
chain: CAWIPAKPLVQGATTAQPIPGPVPVANGSIFQSAQPINYGYQPLFEDRRPRNIGDTLTIVLQENVSASKSSSANASRDGKTSFGFDTVPRYLQGLFGNSRADMEASGGNSFNGKGGANASNTFSGTLTVTVDQVLANGNLHVVGEKQIAINQGTEFIRFSGVVNPRTISGSNSVPSTQVADARIEYVGNGYINEAQNMGWLQRFFLNLSPM
notes: FlgH, the lipoprotein that forms the L ring, Salmonella enterica serovar Typhimurium; made as a precursor with a cleavable N-terminal signal peptide; the atomic model holds the whole 211 residues of FlgH; 26 subunits form the L ring (C26 symmetry); also called L ring protein; H0; source: endogenous, Salmonella HK1002 cells; in the hook-basal body (HBB) purified by sucrose density-gradient …
B2: FlgI (natural protein, UniProt P15930 20-365, looked up)
chain: ERIRDLTSVQGVRENSLIGYGLVVGLDGTGDQTTQTPFTTQTLNNMLSQLGITVPTGTNMQLKNVAAVMVTASYPPFARQGQTIDVVVSSMGNAKSLRGGTLLMTPLKGVDSQVYALAQGNILVGGAGASAGGSSVQVNQLNGGRITNGAIIERELPTQFGAGNTINLQLNDEDFTMAQQITDAINRARGYGSATALDARTVQVRVPSGNSSQVRFLADIQNMEVNVTPQDAKVVINSRTGSVVMNREVTLDSCAVAQGNLSVTVNRQLNVNQPNTPFGGGQTVVTPQTQIDLRQSGGSLQSVRSSANLNSVVRALNALGATPMDLMSILQSMQSAGCLRAKLEII
notes: FlgI, the periplasmic protein that forms the P ring, Salmonella enterica serovar Typhimurium; made as a precursor with a cleavable N-terminal signal peptide; 26 subunits form the P ring (C26 symmetry); Domains: FlgI-OR (1-11 and 160-230), FlgI-IRU (12-159), FlgI-IRL (231-346); also called P ring protein; I0; source: endogenous, Salmonella HK1002 cells; in the hook-basal body (HBB) purified by …

Experiments:
FlgI = target: B2; assay: cryo-EM structure; LP ring part of hook-basal body (HBB) particle images, C26 symmetry applied, 3.5 Å; HBB purified from Salmonella HK1002; final buffer 20 mM Tris-HCl pH 8.0, 150 mM NaCl, 0.05% Triton X-100; conditions: both partners purified
[1] = target: the molecule itself; assay: as above

| Binder | binding result (FlgI) | stoichiometry N [1] |
| --- | --- | --- |
| B1 | binds | 26 |
| B2 |  | 26 |
